How the values were obtained:
[1] = target: T1, HK022 Int E174K+D278K (Bacteriophage HK022, UniProt P16407 SEQ:1-357, E174K,D278K); assay: cell_activity; genomic RMCE at DMD2/DMD3, HEK293; conditions: chain copies: 4
T1 sequence: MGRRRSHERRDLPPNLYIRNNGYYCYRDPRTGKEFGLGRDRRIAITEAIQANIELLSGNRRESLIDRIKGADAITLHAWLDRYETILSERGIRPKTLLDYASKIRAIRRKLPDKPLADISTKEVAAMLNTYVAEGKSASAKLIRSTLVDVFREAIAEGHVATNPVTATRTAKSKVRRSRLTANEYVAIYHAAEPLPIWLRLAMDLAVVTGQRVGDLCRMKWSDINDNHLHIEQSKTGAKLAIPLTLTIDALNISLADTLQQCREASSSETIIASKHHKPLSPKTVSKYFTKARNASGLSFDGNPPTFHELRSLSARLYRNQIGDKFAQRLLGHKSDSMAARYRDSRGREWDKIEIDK
Description: (§1) Plasmid transformations were performed by electroporation (Sambrook, J., et al (1989) Cold Spring Harbor, N.Y.). Plasmids and oligomers are listed in Tables 1,3,5 and 2,4,6 respectively. Human embryonic kidney cells HEK293, 293T, and 293 Flp-In were cultured in Dulbecco's modified Eagle's medium (DMEM). For transient transfection 293T cells (˜6×10⁵) were plated in a 6 well plate and 24 h later treated with 3 μg of the proper plasmid DNA using PureFection Transfection Reagent (System Biosciences, Mountain View, Calif., USA). For the model chromosomal assay transfection, 293 Flp-In cells (˜6×10⁵) were plated in a 6 well plate and 24 h later treated with 5.5 μg of the proper plasmid DNA using Mirus Transfection Reagent (Mirus, Wis., USA). For the CTNS and DMD chromosomal assay transfection, HEK293 cells (˜6×10⁵) were plated in a 6 well plate and 24 h later treated with 3 μg of the proper plasmid DNA using PureFection Transfection Reagent.
(§2) In the DMD model, DMD2 and DMD3 “attB” sites were chosen which are 23 Kb apart located in introns 43 and 44 respectively that flank exon 44 (FIG. 12B). The relevant deletion mutation located in exon 44 is described (GM23715, Coriell institute). A GFP promoter trap whose incoming plasmid carried a splicing acceptor (SA), a ribosomal skipping site (2A) and the ORF of EGFP with a polyA sequence (FIG. 12A) was used. All are flanked with the two relevant “attP”s 1.4 Kb apart. […] The correct sequence of all PCR products was confirmed by NGS.

[2] = target: T2, HK022 Int E174K+I43F+R319G (Bacteriophage HK022, UniProt P16407 SEQ:1-357, I43F,E174K,R319G); assay: cell_activity; genomic RMCE at DMD2/DMD3, HEK293; conditions: chain copies: 4
T2 sequence: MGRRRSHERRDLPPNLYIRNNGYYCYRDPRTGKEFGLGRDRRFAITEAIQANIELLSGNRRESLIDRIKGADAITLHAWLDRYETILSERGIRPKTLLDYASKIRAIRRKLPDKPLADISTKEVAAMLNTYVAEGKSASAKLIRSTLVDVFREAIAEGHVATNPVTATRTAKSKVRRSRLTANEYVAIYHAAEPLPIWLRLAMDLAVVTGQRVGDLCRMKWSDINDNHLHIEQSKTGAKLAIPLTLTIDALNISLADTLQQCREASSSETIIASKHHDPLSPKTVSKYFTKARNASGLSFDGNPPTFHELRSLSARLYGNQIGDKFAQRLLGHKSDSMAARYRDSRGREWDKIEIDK
Description: as §1, §2

[3] = target: T3, HK022 Int D278K (Bacteriophage HK022, UniProt P16407 SEQ:1-357, D278K); assay: cell_activity; trans attB x attP, HEK293T; conditions: chain copies: 4
T3 sequence: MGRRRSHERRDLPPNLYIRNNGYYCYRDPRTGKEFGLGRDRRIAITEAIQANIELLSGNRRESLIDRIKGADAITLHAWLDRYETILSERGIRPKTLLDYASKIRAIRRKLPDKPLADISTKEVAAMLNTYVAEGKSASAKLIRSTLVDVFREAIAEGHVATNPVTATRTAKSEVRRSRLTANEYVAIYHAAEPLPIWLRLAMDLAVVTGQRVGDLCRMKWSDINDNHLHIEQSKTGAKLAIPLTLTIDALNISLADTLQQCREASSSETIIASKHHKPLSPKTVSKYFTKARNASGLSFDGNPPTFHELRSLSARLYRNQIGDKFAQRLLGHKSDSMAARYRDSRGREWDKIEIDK
Description: (§3) To examine the activity of these Int variants, an analytic assay was performed of a transient trans integrative recombination reaction using the wild type attB and attP sites in human HEK293T cells in which each att site is located on a different substrate plasmid (FIG. 2B). The first substrate (pMK221) carries the attP site downstream to the cytomegalovirus promoter (CMV). The second plasmid (pMK223) carries the attB downstream to the open reading frame (ORF) of the green fluorescent protein (GFP) and upstream to a transcription terminator (Stop).
(§4) A productive attB×attP reaction forms a dimer plasmid encoding CMV-promoted GFP expression (FIG. 2B). HEK293T cells were co-transfected with these two substrate plasmids, with or without an Int-expressing plasmid (the oInt pNA979, or one of its Int mutant derivatives). 48 hours post-transfection GFP expressing cells were analyzed by fluorescence-activated cell sorting (FACS).

[4] = target: T2, HK022 Int E174K+I43F+R319G; assay: cell_activity; trans attB x attP, HEK293T; conditions: chain copies: 4
Description: as §3, §4

[5] = target: T4, HK022 Int E174K (Bacteriophage HK022, UniProt P16407 SEQ:1-357, E174K); assay: cell_activity; trans attB x attP, HEK293T (Example 8 quotes 147%); conditions: chain copies: 4
T4 sequence: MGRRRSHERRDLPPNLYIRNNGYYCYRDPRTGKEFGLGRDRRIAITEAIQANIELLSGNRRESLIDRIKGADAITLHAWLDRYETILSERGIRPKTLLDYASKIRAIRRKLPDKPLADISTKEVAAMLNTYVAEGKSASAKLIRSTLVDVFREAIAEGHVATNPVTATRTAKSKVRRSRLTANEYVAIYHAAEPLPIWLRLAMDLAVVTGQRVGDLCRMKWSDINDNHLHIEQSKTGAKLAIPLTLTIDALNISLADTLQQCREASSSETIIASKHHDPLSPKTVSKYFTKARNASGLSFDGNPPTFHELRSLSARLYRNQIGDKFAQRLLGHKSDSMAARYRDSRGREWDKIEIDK
Description: as §3, §4

[6] = target: T5, HK022 integrase (oInt / wild type) (Bacteriophage HK022, UniProt P16407 SEQ:1-357); assay: cell_activity; trans attB x attP integration, HEK293T, reference; conditions: tags: human codon-optimised (oInt) in human cells; native gene in E. coli; chain copies: 4
T5 sequence: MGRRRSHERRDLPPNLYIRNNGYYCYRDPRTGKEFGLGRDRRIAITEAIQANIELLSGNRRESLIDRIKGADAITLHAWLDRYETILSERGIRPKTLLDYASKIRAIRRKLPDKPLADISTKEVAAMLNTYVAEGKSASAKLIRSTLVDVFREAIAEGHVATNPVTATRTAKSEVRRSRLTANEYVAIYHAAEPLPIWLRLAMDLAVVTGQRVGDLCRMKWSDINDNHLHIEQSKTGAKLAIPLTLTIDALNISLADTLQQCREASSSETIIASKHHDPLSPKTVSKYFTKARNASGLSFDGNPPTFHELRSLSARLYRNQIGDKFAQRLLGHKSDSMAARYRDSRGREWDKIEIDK
Description: as §3, §4

B1: DMD3 attB (dsDNA)
DNA 1: GTGCTTTAAAAAGAAAAGGGG
DNA 2: CCCCTTTTCTTTTTAAAGCAC
- activity [1]: 0.4 % cells
- activity [2]: 0.4 % cells

B2: DMD2 attB (dsDNA)
DNA 1: TTGCTTAATGGAGAAAAGGTA
DNA 2: TACCTTTTCTCCATTAAGCAA
- activity [1]: 0.4 % cells
- activity [2]: 0.4 % cells

B3: wild-type attB (dsDNA)
DNA 1: GCACTTTAGGTGAAAAAGGTT
DNA 2: AACCTTTTTCACCTAAAGTGC
- integration activity [3]: 1.48 fold of oInt
- integration activity [4]: 2.3 fold of oInt
- recombination activity (GFP+ cells, relative to oInt) [5]: 1.54 fold of oInt
- integrative recombination activity [6]: 1 fold of oInt

— patent US20220154221, “SITE SPECIFIC RECOMBINASE INTEGRASE VARIANTS AND USES THEREOF IN GENE EDITING IN EUKARYOTIC CELLS” (RAMOT AT TEL-AVIV UNIVERSITY LTD., published 2022)
